The record followed here is PMC7552397, “Crystal structure of caspase-11 CARD provides insights into caspase-11 activation” (Cell Discovery, 2020).

Data set [1] deals with the molecule itself. Briefly: SEC-MALS; DAWN HELEOS 8+, room temperature, samples at 1 mg/mL in 250 mM NaCl, 10 mM Tris-HCl pH 8.0; ASTRA analysis.
Data set [2] concerns the molecule itself. Briefly: AUC; sedimentation velocity, 50,000 r.p.m., 20.0 °C, 250 mM NaCl, 10 mM Tris-HCl pH 8.0; 0.187 and 1.53 mg/mL; c(s) distributions; monomer to homodimer and homotetramer.
Data set [3] concerns the molecule itself. Nature of the data set: SEC; gel filtration on Superdex 200, 250 mM NaCl, 10 mM Tris-HCl pH 8.0; MBP-tagged proteins, 1 mg each where told.
Data set [4] deals with T1, caspase-11 p20 subunit of the catalytic domain (murine, UniProt P70343 60-266).
T1 construct: caspase-11, murine, p20 subunit, residues 60–266; source: E. coli, by auto-processing of MBP-tagged full-length wild-type caspase-11, purified
T1 sequence (looked up): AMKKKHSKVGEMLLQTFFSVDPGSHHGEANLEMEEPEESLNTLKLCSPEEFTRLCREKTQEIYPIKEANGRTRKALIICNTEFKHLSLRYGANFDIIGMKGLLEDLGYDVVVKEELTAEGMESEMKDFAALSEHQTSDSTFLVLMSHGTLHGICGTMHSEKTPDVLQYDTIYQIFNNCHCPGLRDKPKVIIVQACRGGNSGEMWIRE
Briefly: SEC; analytical gel-filtration column of auto-processed wild-type caspase-11 from E. coli; the fraction then on an SDS gel, bands identified by N-terminal sequencing and mass spectrum. Conditions: both partners purified.

Residue numbers refer to the chain shown, from its start. Numbers in names are those of the source.

B1: MBP-tagged caspase-11 CARD, residues 1–101 (WT-CARD^aa1–101) (domain or fragment, murine, UniProt P70343 1-101, looked up)
chain: MAENKHPDKPLKVLEQLGKEVLTEYLEKLVQSNVLKLKEEDKQKFNNAERSDKRWVFVDAMKKKHSKVGEMLLQTFFSVDPGSHHGEANLEMEEPEESLNT
notes: source: E. coli Rosetta and BL21 (DE3), purified (nickel column, Superdex 200 gel filtration); not shown: MBP, N-terminal, kept; His6, C-terminal, kept
B1: the “stoichiometry N” value in data set [1] worked out at 4; in data set [2] it was 2.

B2: MBP-tagged WT-CARD^aa1–101 with the first ten amino acids replaced by a GS repeat sequence (GS repeat mutant) (domain or fragment, murine)
chain: B1 chain with M1G, A2S, E3G, N4S, K5G, H6S, P7G, D8S, K9G, P10S
notes: flexible GS repeat that replaces the first ten amino acids of caspase-11; source: E. coli, purified (nickel column, gel filtration); not shown: MBP, N-terminal, kept; His6, C-terminal, kept
In the case of B2, the binding result in data set [3] was “binds”.

B3: MBP-tagged caspase-11 CARD, residues 1–101, V13A L14A L17A V21A (VLLV-CARD^aa1–101) (domain or fragment, murine, UniProt P70343 1-101, looked up)
chain: B1 chain with V13A, L14A, L17A, V21A
notes: source: E. coli, purified (nickel column, gel filtration); not shown: MBP, N-terminal, kept; His6, C-terminal, kept
For B3, the binding result in data set [3] is “binds”.

B4: caspase-11 p10 subunit of the catalytic domain (domain or fragment, murine, UniProt P70343 286-373, looked up)
chain: AVKLSHVEKDFIAFYSTTPHHLSYRDKTGGSYFITRLISCFRKHACSCHLFDIFLKVQQSFEKASIHSQMPTIDRATLTRYFYLFPGN
notes: caspase-11, murine, p10 subunit, residues 286–373; source: E. coli, by auto-processing of MBP-tagged full-length wild-type caspase-11, purified
For B4, in data set [4], the binding result is listed as “binds”.

B5: MBP-caspase-11 protein carrying only the C254A mutation (C254A-caspase-11) (enzyme, murine, UniProt P70343 1-373, looked up)
chain: MAENKHPDKPLKVLEQLGKEVLTEYLEKLVQSNVLKLKEEDKQKFNNAERSDKRWVFVDAMKKKHSKVGEMLLQTFFSVDPGSHHGEANLEMEEPEESLNTLKLCSPEEFTRLCREKTQEIYPIKEANGRTRKALIICNTEFKHLSLRYGANFDIIGMKGLLEDLGYDVVVKEELTAEGMESEMKDFAALSEHQTSDSTFLVLMSHGTLHGICGTMHSEKTPDVLQYDTIYQIFNNCHCPGLRDKPKVIIVQAARGGNSGEMWIRESSKPQLCRGVDLPRNMEADAVKLSHVEKDFIAFYSTTPHHLSYRDKTGGSYFITRLISCFRKHACSCHLFDIFLKVQQSFEKASIHSQMPTIDRATLTRYFYLFPGN
notes: caspase-11, murine, full-length protein with C254A; also called MBP-caspase-11 C254A; source: E. coli, purified (gel filtration); not shown: MBP, N-terminal, kept; His6, C-terminal, kept
As for B5, the binding result in data set [3] was “binds”.
